Reference: US10213494B2, “Treatment of synucleinopathies” (The Brigham and Women's Hospital, Inc., priority 2007, dated 2019)
Square brackets hold non-standard residues; d marks the D form. Peptide text beside a SMILES is read from it. * marks the point of attachment. Sta = CC(C)C[C@H](N)[C@@H](O)CC(=O)O; Isovaleryl = CC(C)CC(=O)*

B1: N370S: human GBA mutant N370S, created by site-directed mutagenesis, disease-related (protein, UniProt P04062 40-536, looked up, variant N370S)
Lysosomal acid …: ARPCIPKSFGYSSVVCVCNATYCDSFDPPTFPALGTFSRYESTRSGRRMELSMGPIQANHTGTGLLLTLQPEQKFQKVKGFGGAMTDAAALNILALSPPAQNLLLKSYFSEEGIGYNIIRVPMASCDFSIRTYTYADTPDDFQLHNFSLPEEDTKLKIPLIHRALQLAQRPVSLLASPWTSPTWLKTNGAVNGKGSLKGQPGDIYHQTWARYFVKFLDAYAEHKLQFWAVTAENEPSAGLLSGYPFQCLGFTPEHQRDFIARDLGPTLANSTHHNVRLLMLDDQRLLLPHWAKVVLTDPEAAKYVHGIAVHWYLDFLAPAKATLGETHRLFPNTMLFASEACVGSKFWEQSVRLGSWDRGMQYSHSIITSLLYHVVGWTDWNLALNPEGGPNWVRNFVDSPIIVDITKDTFYKQPMFYHLGHFSKFIPEGSQRVGLVASQKNDLDAVALMHPDGSAVVVVLNRSSKDVPLTIKDPAVGFLETISPGYSIHTYLWRRQ
B2: D409H: human GBA mutant D409H, created by site-directed mutagenesis, disease-related (protein, UniProt P04062 40-536, looked up, variant D409H)
Lysosomal acid …: ARPCIPKSFGYSSVVCVCNATYCDSFDPPTFPALGTFSRYESTRSGRRMELSMGPIQANHTGTGLLLTLQPEQKFQKVKGFGGAMTDAAALNILALSPPAQNLLLKSYFSEEGIGYNIIRVPMASCDFSIRTYTYADTPDDFQLHNFSLPEEDTKLKIPLIHRALQLAQRPVSLLASPWTSPTWLKTNGAVNGKGSLKGQPGDIYHQTWARYFVKFLDAYAEHKLQFWAVTAENEPSAGLLSGYPFQCLGFTPEHQRDFIARDLGPTLANSTHHNVRLLMLDDQRLLLPHWAKVVLTDPEAAKYVHGIAVHWYLDFLAPAKATLGETHRLFPNTMLFASEACVGSKFWEQSVRLGSWDRGMQYSHSIITNLLYHVVGWTDWNLALNPEGGPNWVRNFVDSPIIVDITKHTFYKQPMFYHLGHFSKFIPEGSQRVGLVASQKNDLDAVALMHPDGSAVVVVLNRSSKDVPLTIKDPAVGFLETISPGYSIHTYLWRRQ
B3: E340A: human GBA mutant directed at the nucleophile, catalytically inactive (protein, UniProt P04062 40-536, looked up, variant E340A)
Lysosomal acid …: ARPCIPKSFGYSSVVCVCNATYCDSFDPPTFPALGTFSRYESTRSGRRMELSMGPIQANHTGTGLLLTLQPEQKFQKVKGFGGAMTDAAALNILALSPPAQNLLLKSYFSEEGIGYNIIRVPMASCDFSIRTYTYADTPDDFQLHNFSLPEEDTKLKIPLIHRALQLAQRPVSLLASPWTSPTWLKTNGAVNGKGSLKGQPGDIYHQTWARYFVKFLDAYAEHKLQFWAVTAENEPSAGLLSGYPFQCLGFTPEHQRDFIARDLGPTLANSTHHNVRLLMLDDQRLLLPHWAKVVLTDPEAAKYVHGIAVHWYLDFLAPAKATLGETHRLFPNTMLFASAACVGSKFWEQSVRLGSWDRGMQYSHSIITNLLYHVVGWTDWNLALNPEGGPNWVRNFVDSPIIVDITKDTFYKQPMFYHLGHFSKFIPEGSQRVGLVASQKNDLDAVALMHPDGSAVVVVLNRSSKDVPLTIKDPAVGFLETISPGYSIHTYLWRRQ
B4: E235A: human GBA mutant directed at the acid/base catalyst, catalytically inactive (protein, UniProt P04062 40-536, looked up, variant E235A)
Lysosomal acid …: ARPCIPKSFGYSSVVCVCNATYCDSFDPPTFPALGTFSRYESTRSGRRMELSMGPIQANHTGTGLLLTLQPEQKFQKVKGFGGAMTDAAALNILALSPPAQNLLLKSYFSEEGIGYNIIRVPMASCDFSIRTYTYADTPDDFQLHNFSLPEEDTKLKIPLIHRALQLAQRPVSLLASPWTSPTWLKTNGAVNGKGSLKGQPGDIYHQTWARYFVKFLDAYAEHKLQFWAVTAENAPSAGLLSGYPFQCLGFTPEHQRDFIARDLGPTLANSTHHNVRLLMLDDQRLLLPHWAKVVLTDPEAAKYVHGIAVHWYLDFLAPAKATLGETHRLFPNTMLFASEACVGSKFWEQSVRLGSWDRGMQYSHSIITNLLYHVVGWTDWNLALNPEGGPNWVRNFVDSPIIVDITKDTFYKQPMFYHLGHFSKFIPEGSQRVGLVASQKNDLDAVALMHPDGSAVVVVLNRSSKDVPLTIKDPAVGFLETISPGYSIHTYLWRRQ
B5: L444P: human GBA mutant L444P, created by site-directed mutagenesis, disease-related (protein, UniProt P04062 40-536, looked up, variant L444P)
Lysosomal acid …: ARPCIPKSFGYSSVVCVCNATYCDSFDPPTFPALGTFSRYESTRSGRRMELSMGPIQANHTGTGLLLTLQPEQKFQKVKGFGGAMTDAAALNILALSPPAQNLLLKSYFSEEGIGYNIIRVPMASCDFSIRTYTYADTPDDFQLHNFSLPEEDTKLKIPLIHRALQLAQRPVSLLASPWTSPTWLKTNGAVNGKGSLKGQPGDIYHQTWARYFVKFLDAYAEHKLQFWAVTAENEPSAGLLSGYPFQCLGFTPEHQRDFIARDLGPTLANSTHHNVRLLMLDDQRLLLPHWAKVVLTDPEAAKYVHGIAVHWYLDFLAPAKATLGETHRLFPNTMLFASEACVGSKFWEQSVRLGSWDRGMQYSHSIITNLLYHVVGWTDWNLALNPEGGPNWVRNFVDSPIIVDITKDTFYKQPMFYHLGHFSKFIPEGSQRVGLVASQKNDPDAVALMHPDGSAVVVVLNRSSKDVPLTIKDPAVGFLETISPGYSIHTYLWRRQ

The molecules below were run on α-synuclein protein (wild-type, human) in MES23.5 cells (assay: Sandwich ELISA of intracellular α-synuclein in MES23.5 cells co-transfected with wild-type human SNCA cDNA and lysosomal enzyme cDNA). Details: GBA variant plasmid 5 μg per 10 cm dish + 0.5 μg SNCA cDNA, 24 hours after transfection, no prosaposin; mean+/−sem.
Type: cell-based
Procedure: Sera from six rabbits were raised and affinity-purified at Open Biosystems, Inc. (openbiosystems.com) against recombinant, full-length human αS. Recombinant αS had been HPLC- and MS-characterized and subjected to amino acid composition and protein concentration analyses. For ELISA, 384-well MaxiSorp plates (Nunc, Inc) were coated with 50 μl/well capturing polyclonal Ab (hSA-2) diluted in coating buffer (NaHCO3 with 0.2% NaN3, pH 9.6). Following washes with PBS/0.05% Tween-20 (PBS-T), plates were blocked for 2 hours at 37° C. in blocking buffer (1.125% fish skin gelatin; PBS-T). After 4 washes, samples were loaded and incubated at 4° C. for 12 hours. Biotinylated Syn-1 mAb (as the assaying Ab) was generated using 200 μg Sulfo-NHS-LC Biotin (Pierce), diluted in blocking buffer and added to the plate for 2 hours at 37° C. Following 4 washes, ExtrAvidin phosphatase (Sigma) diluted in blocking buffer was applied for 1 hr at 37° C. Color development was carried out by using Fast-p-Nitrophenyl Phosphate (Sigma) and monitored kinetically at OD 405 nm every 5 minutes for up to 60 minutes.
To optimize a ‘DNA: LIPOFECTAMINE® 2000’ ratio with low cell toxicity, MES23.5 cells were transfected with either 0.25, 0.5 or 1 μg αS-encoding, wild-type, human SNCA cDNA plus empty vector cDNA up to a total of 5.5 μg DNA per 10 cm dish. 24 hours after transfection, cell lysates were harvested as described above. For serial dilutions of cell lysates, blocking buffer containing 0.5% lysate from vector-transfected wells was used as diluent, which was also used to create the blank and the corresponding standard curve of recombinant human αS. Saturation kinetics were examined for identification of time point(s) where standards and sample dilutions were in the log phase.
MES cells were transfected with 0.5 μg per 10 cm dish of αS-encoding SNCA cDNA-carrying plasmid, plus 5 μg per 10 cm dish of wild-type or mutant, human GBA-encoding plasmid. The GBA variants used were wild type, N370S, D409H, L444P, E235A, and E340A. These 5 GBA mutants were created by site-directed mutagenesis, using the Quickchange® kit (Stratagene), and sequence-verified. The N370S, D409H and L444P are known to occur (in the homozygous or compound heterozygous state) in Gaucher disease in the heterozygous state in Parkinson Disease patients and/or patients with dementia with Lewy bodies. The E235A and E340A mutant GBA proteins are not known to occur in people.
24 hours after transfection, MES cells were lysed as described above and all lysates were analyzed by ELISA. […] This is in contrast to the result observed in Example 5 above. The observed discrepancy can reflect the differences in total DNA transfected in the two paradigms (FIG. 2B; FIG. 2C versus FIG. 4), thereby leading to changes in the DNA:LIPOFECTAMINE® 2000 ratio, and in the role of co-expressed prosaposin (saposin C). It is therefore conceivable that wild-type GBA can have variable effects on αS levels in these MES23.5 cells, depending on the rate of αS import into lysosomes and the composition as well as activation state of more than one lysosomal enzyme.
MES23.5 cells were transfected with 0.5 μg per 10 cm dish of an αS-encoding, wild-type, human SNCA cDNA-carrying plasmid (referred to as MES-hSNCA WT cells in the Western blot shown in FIG. 6), plus either 1.25, 2.5 or 5 μg per 10 cm dish of a human Cathepsin D-encoding CTSD cDNA plasmid, which was purchased from OriGene Technologies, Inc., and was under the control of a CMV promoter. The Cathepsin D clone was fully sequence-verified after isolation and maxiprep. Each transfection arm was balanced with empty vector DNA up to a total of 5.5 μg DNA per 10 cm dish. 24 hours after transfection, cells were lysed, and the resulting lysates were analyzed by the sandwich ELISA described herein. […]

Molecule	intracellular α-synuclein level, % of vector cDNA control levels
B1	121.1+/−4.98%
B2	269.4+/−56.6%
B3	156.4+/−19.65%
B4	231.0+/−37.14%
B5	172.7+/−23.02%

Same assay, conditions: pepstatin A included in the cell lysis buffer

Molecule	amount of αS detected in the lysate
CC(C)CC(=O)N[C@H](C(=O)N[C@H](C(=O)N[C@@H](CC(C)C)[C@@H](O)CC(=O)N[C@@H](C)C(=O)N[C@@H](CC(C)C)[C@@H](O)CC(=O)O)C(C)C)C(C)C [pepstatin A, reference compound] (Isovaleryl-VV[Sta]A[Sta]-OH)	did not change the amount of αS detected in the lysate
